# In patent US20260265372A1 (TECHNION RESEARCH AND DEVELOPMENT FOUNDATION, published 2026):
# B1: KIR2DL1 fused to the IgG1 Fc domain (Fc fusion)
# chain: HEGVHRKPSLLAHPGRLVKSEETVILQCWSDVMFEHFLLHREGMFNDTLRLIGEHHDGVSKANFSISRMTQDLAGTYRCYGSVTHSPYQVSAPSDPLDIVIIGLYEKPSLSAQLGPTVLAGENVTLSCSSRSSYDMYHLSREGEAHERRLPAGPKVNGTFQADFPLGPATHGGTYRCFGSFHDSPYEWSKSSDPLLVSVTGNPSNSWPSPTEPSSKTGNPRHLH
# B2: 23DKTYB19 (antibody, V domains shown)
# VH: QVQLKQSDAELVKPGASVKISCKVSGYTFTDHTIHWMKQRPEQGLEWIGYIYPRDGSTKYNEKFKGKATLTADKSSSTAYMQLNSLTSEDSAVCFCARTGSYAMDYWGQGTSVTVSS
# VL: DIVMTQSPASLAVSLGQRATISCKASQSVDYDGDSYMNWYQQKPGQPPKLLIYAASNLESGIPARFSGSGSGTDFTLNIHPVEEEDAATYYCQQSNEDPYTFGG
# B3: 23DKTYB4 (antibody, V domains shown)
# VH: QVQLKQSDDELVKPGASVKISCKVSGYTFTDHTIHWMKQRPEQGLEWIGYIYPRDGSTKYNEKFKGKATLTADKSSSTAYMQLNSLTSEDSAVYFCARRRSYYGSSFYFDVWGTGTTVSV
# VL: DIQMTQSTSSLSASLGDRVTISCRASQDISNYLNWYQQKPDGTVKLLIYYTSRLHSGVPSRFSGSGSGTDYSLTISNLEQEDIATYFCQQGNTLPWTFGGGTK
# Assays:
# [1] = biological target: HA glycoprotein of A/Puerto Rico/8/1934 (H1N1) influenza virus, purified (influenza virus A/Puerto Rico/8/1934 …, UniProt P03452 18-528); test: ELISA, plate coated with the fusion protein
# [2] = biological target: T1, D2 domain of human LAG-3 (human, UniProt P18627 169-260); test: not described
# T1 sequence: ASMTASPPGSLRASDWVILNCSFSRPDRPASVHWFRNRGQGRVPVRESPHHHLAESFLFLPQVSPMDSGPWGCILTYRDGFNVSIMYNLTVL
Binder,binding result [1],binding result [2]
B1,no binding,
B2,,binds
B3,,binds
